In patent publication US20210107998A1 (Boehringer Ingelheim, published 2021):

What was measured:
[1] = target: Recombinant human BAFF 60mer (Boehringer Ingelheim Pharmaceuticals, Inc.) (human, UniProt Q9Y275 134-285, limits assumed); assay: cell-based or functional assay
[2] = target: T1, Recombinant human IL-23 (human, UniProt P29460 23-328); assay: cell-based or functional assay
T1 sequence 1: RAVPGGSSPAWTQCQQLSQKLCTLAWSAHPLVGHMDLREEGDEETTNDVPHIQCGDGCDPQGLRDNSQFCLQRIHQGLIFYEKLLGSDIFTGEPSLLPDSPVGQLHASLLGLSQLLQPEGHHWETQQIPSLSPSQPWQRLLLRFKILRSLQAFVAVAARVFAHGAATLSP
T1 sequence 2: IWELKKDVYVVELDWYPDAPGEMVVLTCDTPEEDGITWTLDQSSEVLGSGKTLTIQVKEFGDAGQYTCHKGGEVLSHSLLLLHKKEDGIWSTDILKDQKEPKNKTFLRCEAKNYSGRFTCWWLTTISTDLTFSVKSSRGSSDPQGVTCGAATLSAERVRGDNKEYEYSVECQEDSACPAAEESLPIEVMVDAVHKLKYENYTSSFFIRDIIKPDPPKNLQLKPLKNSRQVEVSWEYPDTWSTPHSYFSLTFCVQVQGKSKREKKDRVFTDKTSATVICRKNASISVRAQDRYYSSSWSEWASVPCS

[3] = target: T2, human BAFF (human, UniProt Q9Y275 134-285, limits assumed); assay: cell-based or functional assay
[4] = target: T3, Recombinant human BAFF trimer (Boehringer Ingelheim Pharmaceuticals, Inc.) (human, UniProt Q9Y275 134-285, limits assumed); assay: cell-based or functional assay
[5] = target: T1, Recombinant human IL-23; assay: BLI (Octet RED96, streptavidin tips), compound incubated 48 h at 37 C in whole blood vs kinetic buffer
Description: (§1) A whole blood interference assay was developed on an Octet RED96 to detect the effects of non-specific binding or off-target binding for compounds in the presence of whole blood (WB). The compound solutions in whole blood and 1× kinetic running buffer (1×kb) were incubated at a temperature of 37° C. for 48 hours. Kinetic measurements for the incubated compound samples were performed with an Octet RED96 equipped with streptavidin (SA) biosensor tips (ForteBio, Menlo Park, Calif.) at 27° C. The ratio of the on-rates/binding signals in buffer and whole blood were reported. A ratio <2 was considered to show no interference.

[6] = target: T2, human BAFF; assay: as above
Description: as §1

[7] = target: T4, cynomolgus IL-23 (cynomolgus, UniProt H6WS56 20-189); assay: cell-based or functional assay
[8] = target: T1, Recombinant human IL-23; assay: cell-based or functional assay; remark: listed apart in the source
[9] = target: Recombinant cynomolgus BAFF trimer (Boehringer Ingelheim Pharmaceuticals, Inc.) (cynomolgus, UniProt A0A2K5V2X4 134-285); assay: cell-based or functional assay
[10] = target: membrane-bound human BAFF on fixed CHO-K1 cells (human, UniProt Q9Y275 1-285); assay: cell-based or functional assay
[11] = target: T4, cynomolgus IL-23; assay: SPR (ProteOn XPR36), compound captured on goat anti-human IgG Fc, antigen injected
Description: (§2) SPR experiments were performed on a ProteOn XPR36 instrument (Bio Rad). A GLM chip was preconditioned with sequential injections of 60 sec of 0.5% SDS, 50 mM NaOH, and 100 mM HCl at a flow rate of 30 μl/min both vertical and horizontal directions.
(§3) The preconditioned GLM chip was then activated by an injection of EDC (76.7 mg/ml) and sulfo-NHS (21.7 mg/ml) mixture with ratio of 1:1 in 6 horizontal channels. Goat-anti-human IgG (GAHA) Fc gamma (Invitrogen) at a concentration of 30 μg/ml in 10 mM, pH 5.0 sodium acetate buffer was immobilized to 8,000 resonance units on the activated GLM chip in 6 horizontal channels. The chip was finally deactivated with 1 M ethanolamine HCl in 6 horizontal channels. The prepared GAHA chip was rotated to vertical direction to capture test compounds, over 5 vertical channels and the last channel was used as a column reference. The captured chip was then rotated again to the horizontal direction for binding. […] The dissociation was allowed for 2 hour. The GAHA surface was regenerated using short pulse injection (18 seconds) of 0.85% phosphoric acid (Bio Rad) at a flow rate of 100 μl/min both horizontal and vertical directions after 10 min association and 2 hr dissociation. The regenerated GAHA was ready for another binding cycle.

[12] = target: T5, cynomolgus BAFF (cynomolgus, UniProt A0A2K5V2X4 134-285); assay: as above
T5 construct: construct not described
Description: as §2, §3

[13] = target: T6, Linked human IL-23 (Boehringer Ingelheim Pharmaceuticals, Inc.) (human, UniProt P29460 23-328); assay: as above
T6 sequence 1: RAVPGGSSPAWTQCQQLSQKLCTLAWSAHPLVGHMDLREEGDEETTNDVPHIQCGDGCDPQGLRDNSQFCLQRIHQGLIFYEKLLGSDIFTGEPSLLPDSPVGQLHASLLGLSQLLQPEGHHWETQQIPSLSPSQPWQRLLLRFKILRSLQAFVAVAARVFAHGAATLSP
T6 sequence 2: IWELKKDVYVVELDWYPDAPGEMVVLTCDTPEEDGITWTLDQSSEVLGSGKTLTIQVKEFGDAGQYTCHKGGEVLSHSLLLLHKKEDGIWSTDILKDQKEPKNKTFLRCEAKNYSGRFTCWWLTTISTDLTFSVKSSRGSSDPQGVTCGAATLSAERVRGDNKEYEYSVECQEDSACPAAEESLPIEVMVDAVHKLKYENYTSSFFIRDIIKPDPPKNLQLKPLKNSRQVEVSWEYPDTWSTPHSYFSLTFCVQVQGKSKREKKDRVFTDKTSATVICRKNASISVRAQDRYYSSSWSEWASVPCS
Description: as §2, §3

[14] = target: T2, human BAFF; assay: as above
Description: as §2, §3

[15] = target: T3, Recombinant human BAFF trimer …; assay: cell-based or functional assay; remark: listed apart in the source

B1: Compound B (bispecific antibody, human IgG4 S228P, kappa)
chain 1: DIQMTQSPSSLSASVGDRVTITCKASRDVAIAVAWYQQKPGKVPKLLIYWASTRHTGVPSRFSGSGSRTDFTLTISSLQPEDVADYFCHQYSSYPFTFGSGTKLEIKGGGSGGGGQVQLVQSGAEVKKPGASVKVSCKASGYSFSTFFIHWVRQAPGQGLEWIGRIDPNSGATKYNEKFESRVTMTRDTSISTAYMELSRLRSDDTAVYYCARGEDLLIRTDALDYWGQGTSVTVSSLGGGSGASTKGPSVFPLAPCSRSTSESTAALGCLVKDYFPEPVTVSWNSGALTSGVHTFPAVLQSSGLYSLSSVVTVPSSSLGTKTYTCNVDHKPSNTKVDKRVESKYGPPCPPCPAPEFLGGPSVFLFPPKPKDTLYITREPEVTCVVVDVSQEDPEVQFNWYVDGVEVHNAKTKPREEQFNSTYRVVSVLTVLHQDWLNGKEYKCKVSNKGLPSSIEKTISKAKGQPREPQVYTLPPSQEEMTKNQVSLTCLVKGFYPSDIAVEWESNGQPENNYKTTPPVLDSDGSFFLYSRLTVDKSRWQEGNVFSCSVMHEALHNHYTQKSLSLSLG
chain 2: DIQMTQSPSSLSASVGDRVSITCKASQNAGIDVAWFQQKPGKAPKLLIYSKSNRYTGVPSRFSGSGSGTDFTLTISSLQPEDFATYYCLQYRSYPRTFGQGTKLEIKGGGSGGGGQVQLVQSGAEVKKPGSSVKVSCKASGYTFTDQTIHWMRQAPGQGLEWIGYIYPRDDSPKYNENFKGKVTITADKSTSTAYMELSSLRSEDTAVYYCAIPDRSGYAWFIYWGQGTLVTVSSLGGGSGRTVAAPSVFIFPPSDEQLKSGTASVVCLLNNFYPREAKVQWKVDNALQSGNSQESVTEQDSKDSTYSLSSTLTLSKADYEKHKVYACEVTHQGLSSPVTKSFNRGEC
notes: Large chain: IL23A(1) VL - BAFF(7) VH - LGGGSG - IgG4-Pro-YTE constant domain; small chain: BAFF(7) VL - IL23A(1) VH - LGGGSG - CL; Tetravalent format
B1 was tested, and the “IC50, NFkB luciferase reporter, human BAFFR-CHO cells” value [1] was 6 pM, the “IC90, NFkB luciferase reporter, human BAFFR-CHO cells” value [1] was 17 pM and the “IC50, STAT3-luciferase reporter in DB lymphoblast B cells” value [2] was 161 pM. For the same binder, the “IC90, STAT3-luciferase reporter in DB lymphoblast B cells” value [2] was 1100 pM, the “IC50, 3H-thymidine incorporation, primary human B cells stimulated with anti-IgM and hBAFF” value [3] was 33.7 pM and the “IC50 Geomean, NFkB luciferase reporter, human TACI-CHO cells” value [4] was 159 pM. The “IC90 Geomean, NFkB luciferase reporter, human TACI-CHO cells” value [4] was 510 pM, the “Ratio of binding signal in WB/kinetic buffer” value [5] was 1.5 and the “Ratio of binding signal in WB/kinetic buffer” value [6] was 1.2. The “IC50, IL-23-induced mouse IL-17 release from mouse splenocytes” value [7] was 200 pM, the “IC90, IL-23-induced mouse IL-17 release from mouse splenocytes” value [7] was 1480 pM and the “IC50, IL-23-induced mouse IL-17 release from mouse splenocytes” value [8] was 202 pM. The “IC90, IL-23-induced mouse IL-17 release from mouse splenocytes” value [8] was 1360 pM, the “IC50 Geomean, NFkB luciferase reporter, human BAFFR-CHO cells” value [9] was 132 pM and the “IC90 Geomean, NFkB luciferase reporter, human BAFFR-CHO cells” value [9] was 295 pM. The “IC50, NFkB luciferase reporter, human BAFFR-CHO cells stimulated with fixed human BAFF CHO-K1 cells” value [10] was 125 pM, the “IC90, NFkB luciferase reporter, human BAFFR-CHO cells stimulated with fixed human BAFF CHO-K1 cells” value [10] was 1140 pM and the Kd [11] was under 15 pM. The Kd [12] was under 15 pM, the Kd [13] was under 15 pM and the Kd [14] was under 15 pM. For the same binder, the “IC50, NFkB luciferase reporter, human BAFFR-CHO cells” value [15] was 39 pM and the “IC90, NFkB luciferase reporter, human BAFFR-CHO cells” value [15] was 256 pM.
